What was measured:
murine DLL1-His = murine DLL1-His (mouse, UniProt Q61483); experiment: ELISA
murine DLL4-His = biological target: T1, murine DLL4-His (mouse, UniProt Q9JI71); experiment: ELISA
T1 chain: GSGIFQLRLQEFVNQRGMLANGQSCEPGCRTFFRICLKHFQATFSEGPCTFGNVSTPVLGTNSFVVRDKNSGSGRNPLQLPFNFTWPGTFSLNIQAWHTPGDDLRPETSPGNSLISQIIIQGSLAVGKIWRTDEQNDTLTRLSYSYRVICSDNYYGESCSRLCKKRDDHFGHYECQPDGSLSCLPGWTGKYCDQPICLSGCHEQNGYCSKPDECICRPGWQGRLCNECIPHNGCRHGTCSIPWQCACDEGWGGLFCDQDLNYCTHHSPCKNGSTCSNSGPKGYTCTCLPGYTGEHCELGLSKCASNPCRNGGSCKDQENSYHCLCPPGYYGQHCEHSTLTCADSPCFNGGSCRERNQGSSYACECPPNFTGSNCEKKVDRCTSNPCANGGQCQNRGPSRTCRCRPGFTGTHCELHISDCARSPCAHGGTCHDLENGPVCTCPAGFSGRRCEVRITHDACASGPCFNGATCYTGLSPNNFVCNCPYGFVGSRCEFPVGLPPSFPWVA

rat Jagged1-Fc = rat Jagged1-Fc (rat, UniProt Q63722); experiment: ELISA
human Jagged1-Fc = human Jagged1-Fc (human, UniProt P78504); experiment: ELISA
human Jagged2-Fc = human Jagged2-Fc (human, UniProt Q9Y219); experiment: ELISA
Sequence of human Jagged2-Fc (Q9Y219 24-1080): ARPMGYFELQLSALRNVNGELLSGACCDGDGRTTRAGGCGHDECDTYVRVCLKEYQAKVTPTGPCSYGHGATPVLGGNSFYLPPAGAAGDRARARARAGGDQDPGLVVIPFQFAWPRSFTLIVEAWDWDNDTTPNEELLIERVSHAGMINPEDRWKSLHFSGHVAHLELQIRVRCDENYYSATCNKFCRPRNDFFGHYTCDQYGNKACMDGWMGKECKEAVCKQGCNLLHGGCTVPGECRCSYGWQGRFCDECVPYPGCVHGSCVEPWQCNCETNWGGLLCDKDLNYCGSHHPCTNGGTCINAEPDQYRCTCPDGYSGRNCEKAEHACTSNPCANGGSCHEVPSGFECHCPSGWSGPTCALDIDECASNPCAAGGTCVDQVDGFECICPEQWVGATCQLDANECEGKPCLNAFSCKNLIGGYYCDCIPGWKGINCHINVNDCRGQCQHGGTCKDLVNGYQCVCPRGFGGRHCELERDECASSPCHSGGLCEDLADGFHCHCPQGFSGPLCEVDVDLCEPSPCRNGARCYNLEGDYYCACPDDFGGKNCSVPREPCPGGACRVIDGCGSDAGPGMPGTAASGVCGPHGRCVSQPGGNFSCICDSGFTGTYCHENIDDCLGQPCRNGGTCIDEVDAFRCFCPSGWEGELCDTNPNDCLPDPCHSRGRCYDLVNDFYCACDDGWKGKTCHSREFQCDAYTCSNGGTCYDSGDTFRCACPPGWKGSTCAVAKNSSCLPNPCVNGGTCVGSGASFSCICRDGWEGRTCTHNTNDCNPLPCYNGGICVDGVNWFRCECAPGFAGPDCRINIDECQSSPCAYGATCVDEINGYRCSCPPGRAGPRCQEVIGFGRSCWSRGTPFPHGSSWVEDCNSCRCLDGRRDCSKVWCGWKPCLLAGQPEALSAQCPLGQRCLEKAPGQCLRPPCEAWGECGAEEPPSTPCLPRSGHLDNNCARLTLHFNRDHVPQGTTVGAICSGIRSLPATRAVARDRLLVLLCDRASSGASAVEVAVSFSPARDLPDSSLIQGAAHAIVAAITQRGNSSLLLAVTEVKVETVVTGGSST

human DLL4-His = human DLL4-His (human, UniProt Q9NR61); experiment: ELISA
Sequence of human DLL4-His (Q9NR61 27-529): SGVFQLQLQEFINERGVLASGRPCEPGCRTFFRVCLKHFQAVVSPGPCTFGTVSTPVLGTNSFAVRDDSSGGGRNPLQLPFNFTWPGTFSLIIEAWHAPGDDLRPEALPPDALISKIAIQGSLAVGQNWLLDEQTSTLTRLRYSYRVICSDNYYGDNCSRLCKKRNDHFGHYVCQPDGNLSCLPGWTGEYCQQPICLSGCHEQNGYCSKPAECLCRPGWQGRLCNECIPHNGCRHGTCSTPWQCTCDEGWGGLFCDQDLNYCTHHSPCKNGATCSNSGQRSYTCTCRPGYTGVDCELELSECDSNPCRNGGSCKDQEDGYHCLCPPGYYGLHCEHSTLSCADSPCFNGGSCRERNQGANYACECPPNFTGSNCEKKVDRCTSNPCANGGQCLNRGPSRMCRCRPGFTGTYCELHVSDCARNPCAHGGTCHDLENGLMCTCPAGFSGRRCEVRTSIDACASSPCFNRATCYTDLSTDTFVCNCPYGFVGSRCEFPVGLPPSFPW

[1] = biological target: human Jagged1 ECD-His (Met1-Ser1046) (human, UniProt P78504); experiment: BLI
Sequence of human Jagged1 ECD-His (Met1-Ser1046) (P78504 1-1046): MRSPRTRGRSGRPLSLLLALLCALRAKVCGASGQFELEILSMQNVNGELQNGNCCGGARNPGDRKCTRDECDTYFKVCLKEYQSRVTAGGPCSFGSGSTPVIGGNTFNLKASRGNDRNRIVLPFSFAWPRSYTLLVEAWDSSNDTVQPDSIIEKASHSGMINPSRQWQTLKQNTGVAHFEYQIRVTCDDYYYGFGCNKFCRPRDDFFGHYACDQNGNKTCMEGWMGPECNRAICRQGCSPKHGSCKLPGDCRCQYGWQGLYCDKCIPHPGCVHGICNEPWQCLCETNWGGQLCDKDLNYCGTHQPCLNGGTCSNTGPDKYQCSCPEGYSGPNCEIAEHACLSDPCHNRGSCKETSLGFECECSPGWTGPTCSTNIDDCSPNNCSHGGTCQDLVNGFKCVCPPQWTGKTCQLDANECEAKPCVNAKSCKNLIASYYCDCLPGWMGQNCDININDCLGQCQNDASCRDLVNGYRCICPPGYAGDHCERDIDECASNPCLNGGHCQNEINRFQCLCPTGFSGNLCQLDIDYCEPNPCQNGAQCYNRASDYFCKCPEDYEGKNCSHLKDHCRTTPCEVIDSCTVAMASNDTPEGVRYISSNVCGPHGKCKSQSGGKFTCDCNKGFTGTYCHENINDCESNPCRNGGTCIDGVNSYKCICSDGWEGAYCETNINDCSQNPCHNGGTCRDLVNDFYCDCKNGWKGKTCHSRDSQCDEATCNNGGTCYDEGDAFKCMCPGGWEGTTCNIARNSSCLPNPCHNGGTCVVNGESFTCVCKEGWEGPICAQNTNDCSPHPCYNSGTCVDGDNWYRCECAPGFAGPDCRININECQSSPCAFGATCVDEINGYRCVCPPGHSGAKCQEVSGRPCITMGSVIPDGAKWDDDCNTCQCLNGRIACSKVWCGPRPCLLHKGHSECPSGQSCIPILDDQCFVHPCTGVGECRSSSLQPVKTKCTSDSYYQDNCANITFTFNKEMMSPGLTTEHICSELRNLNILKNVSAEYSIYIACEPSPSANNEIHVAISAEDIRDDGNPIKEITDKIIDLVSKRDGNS

[2] = biological target: T2, human Jagged1 on 293/293T cells (human, UniProt P78504); experiment: FACS
[3] = biological target: T3, murine Jagged1 on 293T cells (mouse, UniProt Q9QXX0); experiment: FACS
T3 chain: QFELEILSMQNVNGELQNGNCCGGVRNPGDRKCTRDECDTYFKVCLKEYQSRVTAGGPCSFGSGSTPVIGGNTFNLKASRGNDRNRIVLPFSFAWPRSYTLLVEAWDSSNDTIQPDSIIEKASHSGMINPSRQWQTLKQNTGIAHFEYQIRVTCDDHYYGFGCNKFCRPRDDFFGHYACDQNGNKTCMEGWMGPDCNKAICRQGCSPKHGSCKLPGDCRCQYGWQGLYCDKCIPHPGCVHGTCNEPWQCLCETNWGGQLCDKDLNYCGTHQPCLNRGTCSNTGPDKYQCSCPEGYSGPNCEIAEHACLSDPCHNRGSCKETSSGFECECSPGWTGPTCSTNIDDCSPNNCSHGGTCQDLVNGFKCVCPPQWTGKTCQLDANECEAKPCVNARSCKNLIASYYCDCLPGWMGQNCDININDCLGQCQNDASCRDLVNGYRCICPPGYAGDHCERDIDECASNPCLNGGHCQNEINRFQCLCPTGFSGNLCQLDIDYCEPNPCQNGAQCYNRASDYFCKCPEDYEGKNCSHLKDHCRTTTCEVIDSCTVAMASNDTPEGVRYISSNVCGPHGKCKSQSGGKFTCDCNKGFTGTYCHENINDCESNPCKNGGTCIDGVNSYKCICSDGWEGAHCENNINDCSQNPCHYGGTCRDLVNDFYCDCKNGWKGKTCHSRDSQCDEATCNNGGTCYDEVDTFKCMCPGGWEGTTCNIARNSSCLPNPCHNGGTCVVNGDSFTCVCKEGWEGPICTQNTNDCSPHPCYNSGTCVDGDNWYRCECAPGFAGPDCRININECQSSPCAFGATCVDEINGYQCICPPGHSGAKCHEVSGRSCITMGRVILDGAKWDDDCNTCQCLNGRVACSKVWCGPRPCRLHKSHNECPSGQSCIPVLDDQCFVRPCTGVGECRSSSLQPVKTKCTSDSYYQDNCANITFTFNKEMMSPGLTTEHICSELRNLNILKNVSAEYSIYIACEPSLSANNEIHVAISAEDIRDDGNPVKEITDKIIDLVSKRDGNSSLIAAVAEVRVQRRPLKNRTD

[4] = biological target: rat Jagged1 on 293T cells (rat, UniProt Q63722); experiment: FACS
[5] = biological target: T2, human Jagged1 on 293/293T cells; experiment: KinExA, on-cell
murine Jagged2-Fc = murine Jagged2-Fc (mouse, UniProt Q9QYE5); experiment: ELISA
Sequence of murine Jagged2-Fc (Q9QYE5 24-1082): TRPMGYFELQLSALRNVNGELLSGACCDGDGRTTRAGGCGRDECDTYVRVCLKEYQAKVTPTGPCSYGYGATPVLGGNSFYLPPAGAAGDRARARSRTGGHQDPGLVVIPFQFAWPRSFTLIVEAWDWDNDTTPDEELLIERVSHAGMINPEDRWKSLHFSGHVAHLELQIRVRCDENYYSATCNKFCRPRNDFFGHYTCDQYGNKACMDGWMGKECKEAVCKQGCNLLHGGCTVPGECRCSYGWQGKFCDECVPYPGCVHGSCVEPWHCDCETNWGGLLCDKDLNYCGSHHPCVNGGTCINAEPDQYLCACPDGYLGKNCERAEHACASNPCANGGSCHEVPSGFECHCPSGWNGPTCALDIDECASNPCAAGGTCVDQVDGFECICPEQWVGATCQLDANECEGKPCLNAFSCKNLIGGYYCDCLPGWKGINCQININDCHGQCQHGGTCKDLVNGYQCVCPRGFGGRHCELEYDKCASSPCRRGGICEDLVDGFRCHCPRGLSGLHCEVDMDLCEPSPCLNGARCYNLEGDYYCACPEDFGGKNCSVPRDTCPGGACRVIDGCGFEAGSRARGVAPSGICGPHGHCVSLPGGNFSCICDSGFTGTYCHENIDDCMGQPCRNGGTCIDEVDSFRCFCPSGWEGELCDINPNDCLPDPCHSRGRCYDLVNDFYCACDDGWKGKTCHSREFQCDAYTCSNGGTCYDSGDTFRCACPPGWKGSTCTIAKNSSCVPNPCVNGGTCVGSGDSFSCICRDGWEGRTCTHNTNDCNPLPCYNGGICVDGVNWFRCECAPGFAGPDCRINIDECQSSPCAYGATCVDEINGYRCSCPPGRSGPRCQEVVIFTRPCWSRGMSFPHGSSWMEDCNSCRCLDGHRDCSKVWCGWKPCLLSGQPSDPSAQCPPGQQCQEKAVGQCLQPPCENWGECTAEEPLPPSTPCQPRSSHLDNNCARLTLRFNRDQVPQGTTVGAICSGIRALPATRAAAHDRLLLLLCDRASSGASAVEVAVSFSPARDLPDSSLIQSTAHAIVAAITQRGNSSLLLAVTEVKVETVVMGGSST

human Jagged1-His = human Jagged1-His (human, UniProt P78504); experiment: ELISA

Sequence of murine DLL1-His (Q61483 18-545): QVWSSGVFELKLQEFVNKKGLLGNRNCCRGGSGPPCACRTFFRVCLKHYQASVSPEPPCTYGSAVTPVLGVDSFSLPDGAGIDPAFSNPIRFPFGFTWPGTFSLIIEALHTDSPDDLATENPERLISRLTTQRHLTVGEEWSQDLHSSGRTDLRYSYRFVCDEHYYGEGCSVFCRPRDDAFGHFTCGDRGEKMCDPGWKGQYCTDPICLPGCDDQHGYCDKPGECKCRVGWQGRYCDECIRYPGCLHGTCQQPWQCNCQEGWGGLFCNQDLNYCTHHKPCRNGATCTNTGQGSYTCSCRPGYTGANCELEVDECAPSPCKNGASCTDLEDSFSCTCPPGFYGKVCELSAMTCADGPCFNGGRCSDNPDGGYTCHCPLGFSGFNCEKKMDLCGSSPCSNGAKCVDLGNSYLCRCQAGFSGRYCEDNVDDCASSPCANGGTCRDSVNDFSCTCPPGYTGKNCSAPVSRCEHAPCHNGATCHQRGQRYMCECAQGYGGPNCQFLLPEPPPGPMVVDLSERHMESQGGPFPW

B1: 15D11.1 (antibody, V domains shown)
VH: QVTLKESGPVLVKPTETLTLTCTVSGFSLSNAEMGVSWIRQPPGKALEWLAHLFSNDEKSYSTSLKSRLTISKDTSKSQVVLTMTDLDPVDTATYYCARSFNWNYDFDYWGQGTLVTVSS
VL: QSALTQPASVSGSPGQSITISCTGTSSAVGGHNFVSWYQQYPGKAPKLMIYEVSNRPSGVSTRFSGSKSGNTASLTISGLQAEDEADYYCSSYTSSSTWVFGGGTRLTVL
Q: Does B1 bind (murine DLL1-His)?
A: no binding

Q: Does B1 bind (murine DLL4-His)?
A: no binding

Q: What about the EC50 (rat Jagged1-Fc) of the same binder?
A: 0.51 nM

Q: And the EC50 (human Jagged1-Fc)?
A: 0.8 nM

Q: Does B1 bind (human Jagged2-Fc)?
A: no binding

Q: Does B1 bind (human DLL4-His)?
A: no binding

Q: And the Kd [1]?
A: 0.614 nM

Q: What about the EC50 [2] of the same binder?
A: 0.29 nM

Q: What about the EC50 [3] of the same binder?
A: 0.36 nM

Q: What about the EC50 [4] of the same binder?
A: 0.25 nM

Q: And the Kd [5]?
A: 0.125 nM

Q: Does B1 bind (murine Jagged2-Fc)?
A: no binding

Q: What about the EC50 (human Jagged1-His) of the same binder?
A: 0.39 nM

From patent publication US11028180
